Results: US20100183584A1, “CONFORMATION AND ACTIVITY OF GBETA5 COMPLEXES” (University Of Miami, priority 2007, published 2010)
Where a chain is given by its changes, count along the chain named.

Experiments:
[1] = target: muscarinic acetylcholine M3 receptor (M3R), full length, expressed in CHO cells (human) (UniProt P20309); assay: cell-based or functional assay
[2] = target: Gβ5-RGS7^249-469 complex (bovine) (UniProt O46470); assay: GST pull-down from COS-7 lysate, western blot
[3] = target: full-length RGS7-Gβ5 complex (recombinant, co-expressed in cells) (bovine) (UniProt O46470); assay: GST pull-down from COS-7 lysate, western blot
[4] = target: native RGS7-Gβ5 complex from mouse brain extract (mouse) (UniProt P62881); assay: GST pull-down from mouse brain extract, western blot
GST = target: T1, GST (UniProt P08515 1-218 = GST); assay: GST pull-down from CHO cell lysate
T1 construct: Negative control in pull-down and FRET assays; also called GST alone; immobilized GST

[5] = target: T2, native RGS7-Gβ5 complex from mouse brain extract (mouse, UniProt P62881 1-353; O54829 1-469, limits assumed); assay: GST pull-down from mouse brain extract, western blot with anti-RGS7 and anti-Gβ5
T2 construct: Native complex in a cholate extract of brain membranes; may also carry R7BP; also called native Gβ5-RGS7; Gβ5-RGS complexes (brain)
T2 sequence (looked up) 1: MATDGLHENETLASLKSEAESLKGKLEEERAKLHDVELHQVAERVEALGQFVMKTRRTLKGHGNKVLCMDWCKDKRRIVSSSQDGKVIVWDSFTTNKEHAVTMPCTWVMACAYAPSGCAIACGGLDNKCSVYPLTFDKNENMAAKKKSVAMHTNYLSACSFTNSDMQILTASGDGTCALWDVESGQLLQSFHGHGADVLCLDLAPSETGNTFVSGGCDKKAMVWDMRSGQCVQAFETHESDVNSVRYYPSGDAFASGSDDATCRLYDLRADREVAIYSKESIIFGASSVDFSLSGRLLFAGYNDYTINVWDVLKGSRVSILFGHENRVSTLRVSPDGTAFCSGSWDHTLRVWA
T2 sequence (looked up) 2: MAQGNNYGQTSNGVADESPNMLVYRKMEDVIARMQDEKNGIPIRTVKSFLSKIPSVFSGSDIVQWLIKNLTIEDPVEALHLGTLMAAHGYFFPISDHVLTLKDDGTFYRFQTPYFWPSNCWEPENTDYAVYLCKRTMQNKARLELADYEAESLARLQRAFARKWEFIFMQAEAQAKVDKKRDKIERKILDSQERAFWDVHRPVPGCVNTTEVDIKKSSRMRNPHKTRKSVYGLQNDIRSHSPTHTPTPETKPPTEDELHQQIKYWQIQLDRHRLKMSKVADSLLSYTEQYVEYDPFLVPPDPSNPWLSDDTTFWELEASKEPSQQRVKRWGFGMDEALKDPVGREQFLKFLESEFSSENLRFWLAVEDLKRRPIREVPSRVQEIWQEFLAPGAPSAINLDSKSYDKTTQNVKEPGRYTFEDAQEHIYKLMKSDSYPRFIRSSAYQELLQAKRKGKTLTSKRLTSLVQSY

[6] = target: T3, Gβ5-RGS7 dimer (CFP-Gβ5/YFP-RGS7) (UniProt O14775+O46470); assay: FRET between CFP-Gβ5 and YFP-RGS7 in COS-7 cell lysates; assay type: binding, bovine; conditions: GST-R7DEP added to COS-7 lysate; GST alone had no effect
T3 construct: YFP fusion of full-length RGS7 (YFP-RGS7) and CFP-Gβ5; expressed in transfected cells; host or cells: COS-7 (transient; lysate measured)
T3 sequence (O14775 1-353 isoform O14775-2): T2 sequence (looked up) 1 with D4E, V242I
T3 sequence (O46470 1-469): T2 sequence (looked up) 2 with H259Q, V298A, R371K, R452K, T456S
Source text: To measure FRET, COS-7 cells were transiently transfected with plasmids encoding YFP-RGS7 and CFP-Gβ5. Control cells were co-transfected with YFP-RGS7 together with untagged Gβ5, and CFP-Gβ5 together with untagged RGS7. The lysates of these cells were subjected to spectroscopic analysis, as described in Example 1. Shown are the resulting FRET spectra obtained after subtraction of the YFP background fluorescence during the CFP excitation and CFP “bleed-through” into the YFP emission channel. A. Right panel: GST R7-DEP (black symbols) or buffer (open symbols) was added to the lysate prior to recording of the spectra. […]
To permit the association of exogenously added DEP domain with Gβ5, the intra-molecular interaction between the intrinsic DEP and Gβ5 must be dynamic and have relatively low affinity. To investigate this hypothesis, a protein-protein binding assay based on fluorescence resonance energy transfer (FRET) was devised. […]
FRET between CFP— and YFP-tagged proteins was determined on a photon counting spectrofluorometer (PTI, Inc.) (28). Briefly, the cell lysates were placed in a 4 ml quartz cuvette, and the spectra were recorded at room temperature with continuous mixing of the lysate with a magnetic stirrer. CFP was excited at 433 nm (2-4 nm slit width, depending on the intensity of fluorescence signal) and the emission spectra were obtained between 465 and 555 nm. […]

Sequence of Gβ5-RGS7^249-469 complex (bovine) (O46470 249-469, one chain of several): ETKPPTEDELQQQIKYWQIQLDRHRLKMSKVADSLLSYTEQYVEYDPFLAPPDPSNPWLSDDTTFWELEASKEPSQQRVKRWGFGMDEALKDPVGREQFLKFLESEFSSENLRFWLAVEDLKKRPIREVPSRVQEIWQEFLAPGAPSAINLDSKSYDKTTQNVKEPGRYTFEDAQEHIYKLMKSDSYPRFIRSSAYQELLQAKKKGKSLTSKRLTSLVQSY
T1 sequence (P08515 whole entry): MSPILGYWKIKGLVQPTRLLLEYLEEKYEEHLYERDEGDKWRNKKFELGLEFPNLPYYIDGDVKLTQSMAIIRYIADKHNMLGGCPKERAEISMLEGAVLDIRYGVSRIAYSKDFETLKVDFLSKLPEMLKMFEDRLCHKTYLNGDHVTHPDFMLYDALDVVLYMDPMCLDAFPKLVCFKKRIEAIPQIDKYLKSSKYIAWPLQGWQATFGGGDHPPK
Sequence of muscarinic acetylcholine M3 receptor (M3R), full length, expressed in CHO cells (human) (P20309 whole entry): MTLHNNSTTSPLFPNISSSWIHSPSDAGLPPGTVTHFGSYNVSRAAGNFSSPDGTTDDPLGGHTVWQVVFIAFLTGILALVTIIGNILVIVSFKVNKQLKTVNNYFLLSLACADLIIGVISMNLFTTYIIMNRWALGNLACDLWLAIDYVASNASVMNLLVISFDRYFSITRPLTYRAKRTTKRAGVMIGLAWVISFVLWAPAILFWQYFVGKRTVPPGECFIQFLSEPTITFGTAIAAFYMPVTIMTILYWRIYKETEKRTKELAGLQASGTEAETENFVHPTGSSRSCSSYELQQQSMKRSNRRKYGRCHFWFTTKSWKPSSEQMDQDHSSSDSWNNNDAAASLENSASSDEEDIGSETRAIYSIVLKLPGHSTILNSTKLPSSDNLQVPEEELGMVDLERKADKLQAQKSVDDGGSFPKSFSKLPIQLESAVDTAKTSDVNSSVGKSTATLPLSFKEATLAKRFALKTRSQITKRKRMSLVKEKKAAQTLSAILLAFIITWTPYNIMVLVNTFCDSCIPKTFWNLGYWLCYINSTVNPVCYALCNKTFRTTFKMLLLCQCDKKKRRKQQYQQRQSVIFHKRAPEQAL

## full-length RGS7 ED/SG mutant (RGS7^ED/SG, E73S/D74G) co-expressed with Gβ5 (from UniProt O46470 1-469)
[1]
  reduction of the amplitude of carbachol-induced Ca^2+ transients in CHO-R7BP cells: > 50%

## GST-R7DEP ED/SG mutant (E73S/D74G) (from UniProt O46470 34-124)
[2]
  fold reduction in the amount of Gβ5 pulled down relative to the wild-type DEP domain: > 10 fold
[3]
  fold reduction in the amount of Gβ5 pulled down relative to the wild-type DEP domain: > 10 fold
[4]
  fold reduction in the amount of Gβ5 pulled down relative to the wild-type DEP domain: > 10 fold

B1: YFP-DEP (amino acids 1-124 of full-length bovine RGS7 fused to the C-terminus of YFP) (other, UniProt O46470 1-124, looked up)
chain: MAQGNNYGQTSNGVADESPNMLVYRKMEDVIARMQDEKNGIPIRTVKSFLSKIPSVFSGSDIVQWLIKNLTIEDPVEALHLGTLMAAHGYFFPISDHVLTLKDDGTFYRFQTPYFWPSNCWEPE
notes: range 1-124; also called DEP domain; DEP domain of RGS7; not shown: yellow fluorescent protein (YFP) of the pEYFPC1 vector
GST
  binding result: no binding

B2: GST-R9DEP (GST fusion of the putative DEP domain of RGS9, amino acids 20-117 of bovine RGS9) (other, UniProt O46469 20-117, looked up)
chain: IEALVKDMQDPDTGVRVQNQKVKVVSIPHAMTGSDVLQWISQRLWISGLEAQNLGNFIVKYGYIYPLQDPRNLTLKPDSSLYRFQTPYFWPTQQWPAE
notes: range 20-117; not shown: glutathione S-transferase (GST) tag of the pGEX-KG vector
[5]
  binding result: no binding

B3: GST-R7DEP: GST fusion construct containing the amino acids 34-124 of bovine RGS7 (protein)
chain: MQDEKNGIPIRTVKSFLSKIPSVFSGSDIVQWLIKNLTIEDPVEALHLGTLMAAHGYFFPISDHVLTLKDDGTFYRFQTPYFWPSNCWEPE
modifications: left off: a dimerising Fc or GST
notes: GST fusion construct containing the amino acids 34-124 of bovine RGS7
[6]
  FRET reduction, of the total FRET signal: 15-20%
